Reference: the supplement of paper PMC10567573
± gives the standard deviation.

Test: protein stability index of a GFP-peptide fusion (GPS, HEK-293T) (PSI 1-6); higher = more stable
Settings: c terminus: a fixed tail appended
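Further: 24-mer peptide tiles fused after GFP, lentivirally expressed, FACS-sorted into six equal bins by GFP/DsRed ratio, decoded by Illumina sequencing, PSI is the read-weighted mean bin number.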

| Sequence | protein stability index (treatment: DMSO) | protein stability index (treatment: MLN4924 1 uM, 8 h) |
| --- | --- | --- |
| KPQAPQKLDPTLSSCFFIESCGAQ | 3.35 ± 0.28 | 3.15 ± 0.21 |
| TQRRTSMGGTQQQFVEGVRMEEIV [CTNNB1] | 4.05 ± 0.47 | 4.26 ± 0.37 |
| MLQKPKSVKLRALRSPRKFGVAGR [DFFB] | 2.94 ± 0.27 | 3.26 ± 0.35 |
| EEEAASPEGKRVPKRLRCWEEEED [FANCE] | 5.4 ± 0.42 | 5.38 ± 0.21 |
| TYMSADDLRINLWNFEITNQSFNI [PPP2R2B] | 2.43 ± 0.66 | 2.53 ± 0.3 |
| EEVKTPEEEMRSHYVAQTGILWLL [GAGE1] | 2.11 ± 0.31 | 2.44 ± 0.49 |
| VDIGMMKEFILTDEEVQRKREMIL [VDR] | 3.24 ± 0.19 | 3.24 ± 0.19 |
| ETIEGAPPLWAASAAGHLDVVRSL [FEM1A] | 3.78 ± 0.16 | 3.72 ± 0.13 |
| FSGSLEPVACGSVLSEGSPLTEQE [SRPK2] | 5.23 ± 0.17 | 5.46 ± 0.16 |
| FMLRYLYSQKESGHSNWLGDPEEP [ATL3] | 2.75 ± 0.33 | 2.06 ± 0.48 |
| HKHVVQFYHYFEDKENIYILLEYC [PLK2] | 2.63 ± 0.43 | 2.37 ± 0.71 |
| FEQGKWDVFSENLLADVKGARAAL [STX11] | 2.67 ± 0.14 | 2.72 ± 0.45 |
| MASCAEPSEPSAPLPAGVPPLEDF [FKBP8] | 4.97 ± 0.28 | 5.05 ± 0.14 |
| KIREQNLQDIKTAGPQSQVLCGVV [ADD1] | 3.15 ± 0.43 | 3.37 ± 0.24 |
| VLCLIVLPLALYTATFAVHFMVLS [POMT2] | 3.17 ± 0.19 | 3.34 ± 0.43 |
| GVKFVGLFIILQVGLNTIADLWYL [POMT2] | 3.52 ± 0.1 | 2.9 ± 1.2 |
| HTPSDTGVSFQAISSMADFWDFAQ [PKD2L1] | 2.85 ± 0.36 | 3.01 ± 0.35 |
| HLYLLRGLPGSGKTTLARQLQHDF [N4BP2L1] | 2.35 ± 0.47 | 2.27 ± 0.29 |
| KEKANSLKNEIQEVEELDNWQPAV [SPATS1] | 5.24 ± 0.2 | 5.25 ± 0.27 |
| RLSVELTSSLFRTEPMAWNETADL [CTNNB1] | 2.83 ± 0.2 | 3.03 ± 0.31 |
| GGEAAHHTRSPYSTFYPPYHSPEL [NEUROD6] | 3.38 ± 0.2 | 3.58 ± 0.12 |
| ESDSCVSFEAPLTPLIQQRARDSP [PSD2] | 5.02 ± 0.16 | 4.92 ± 0.24 |
| GMSTIRPNPGFSMLDFLSERPWIK [APMAP] | 2.62 ± 0.34 | 2.76 ± 0.24 |

| Sequence | protein stability index (treatment: DMSO) | protein stability index (treatment: MLN4924 1 uM, 8 h) |
| --- | --- | --- |
| PPSSGNGPAPPPLPPALVPAGGLA [WAS] | 4.66 ± 0.47 | 4.67 ± 0.29 |
| SYPNPNEDKCPGNYTNPLKVQTVI [TMEM192] | 3.17 ± 0.36 | 3.29 ± 0.22 |
| DTYIVLAWISKIKGSPDVSASSDE [SMIM2] | 2.42 ± 0.6 | 2.41 ± 0.27 |
| SEMECQNQEYKMLLDIKTRLEQEI [KRT13] | 3.72 ± 0.26 | 3.82 ± 0.32 |
| AVTSLSSQIQYMNTVVSTYVTTNV [TMEM106C] | 2.58 ± 0.67 | 2.51 ± 0.39 |
| AVGQDCYTRIWSLHDARLLRTIPS [DCAF4] | 2.48 ± 0.36 | 2.39 ± 0.26 |
| IVLAACSDYFCAMFTSELSEKGKP [KLHL12] | 2.76 ± 0.42 | 3.05 ± 0.64 |
| CSIALLRALATSNARAQQRAAAQQ [GNAS] | 2.23 ± 0.23 | 2.27 ± 0.12 |
| RLNYDRKELEKRREESQHEIKDVL [PPFIA4] | 3.65 ± 0.42 | 4.76 ± 0.3 |
| DITPLMAAANGGHVKIVKLLLAHK [ANKRD17] | 2.27 ± 0.2 | 2.33 ± 0.41 |
| SSQLAQMQCLISNVEAQLSEIRCD [KRT36] | 3 ± 0.075 | 3.1 ± 0.31 |
| TEATISIREDEVHRLGSPYGHCTA [SCNN1D] | 3.93 ± 0.29 | 3.88 ± 0.16 |
| ALNEQACRNGSSIQIAFEEVPQLP [C2CD2L] | 3.83 ± 0.38 | 4.02 ± 0.12 |
| VTDCKHTEDVGVVCSDKRIPGFKF [LOXL2] | 3.61 ± 0.35 | 3.77 ± 0.16 |
| IDEIISLESSYNDEMLSYLPGGTT [TFE3] | 3.96 ± 0.16 | 3.88 ± 0.32 |
| DFVMSLTFPFKILGDSGLGPWQLN [P2RY14] | 3 ± 0.56 | 3.08 ± 0.74 |
| SDLNEVPVKELAALPKATILDLSC [LRRC59] | 3.96 ± 0.052 | 4.01 ± 0.3 |
| KQCIVAHPVNPPYYIPLVELVPHP [CRYL1] | 2.33 ± 0.17 | 2.47 ± 0.32 |
| GTPMGTFAPLWEVFRVSSDKLALC [FCHO1] | 2.23 ± 0.63 | 2.17 ± 0.41 |
| KLVHFLLLKYRAREPVTKAEMLGS [MAGEA6] | 2.81 ± 0.48 | 2.78 ± 1.3 |
| HGAHKAEKKLFECLTCGKSFRQGM [ZNF263] | 2.67 ± 0.27 | 2.78 ± 0.25 |
| VELYRIKFKESFAEMNRGSNEWKT [COX4I1] | 2.23 ± 0.29 | 2.07 ± 0.45 |
